The values that follow come from the supplement of paper PMC9112550, “Optimization of the antimicrobial peptide Bac7 by deep mutational scanning” (BMC Biology, 2022).

This data set has as its system Escherichia coli TOP10. In words: shrunken log2 fold change of peptide-encoding DNA abundance (4.5 h post-induction vs induction); higher = less antimicrobial activity (less host growth inhibition). To be noted: time post-induction: 4.5 h; library: site-saturation at positions 5, 18, 19, 20.
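Further: peptides expressed intracellularly from a pBAD plasmid library in pooled LB shake-flask culture, induced with 0.3% L-arabinose, DNA abundance read by NGS, three biological replicates, DESeq2 with apeglm shrinkage.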

As for RRIRNRPPRLPRPRPRPFIKPRP, the “shrunken log2 fold change” value is -0.473.
Regarding RRIRERPPRLPRPRPRPQVIPRP, the “shrunken log2 fold change” value was -0.125.
With RRIRQRPPRLPRPRPRPYWVPRP, the “shrunken log2 fold change” value is -0.264.
On to RRIRYRPPRLPRPRPRPYMVPRP, for which the “shrunken log2 fold change” value is -0.386.
As for RRIRHRPPRLPRPRPRPDSTPRP, the “shrunken log2 fold change” value came to 0.12.
Under RRIRWRPPRLPRPRPRPMDCPRP stands -0.0839; under RRIRLRPPRLPRPRPRPYIGPRP, -0.129; under RRIRERPPRLPRPRPRPAGVPRP, 0.157.
Turning to RRIRMRPPRLPRPRPRPQARPRP, the “shrunken log2 fold change” value came out at 0.575.
Under RRIRRRPPRLPRPRPRPTIDPRP stands -0.0234.
Under RRIRDRPPRLPRPRPRPLWMPRP stands 0.0442; under RRIRHRPPRLPRPRPRPINVPRP, -1.14; under RRIRYRPPRLPRPRPRPCEDPRP, -0.371.
With RRIRRRPPRLPRPRPRPNAIPRP the figure was -0.116; with RRIRERPPRLPRPRPRPECWPRP, 0.447; with RRIRKRPPRLPRPRPRPVLNPRP, 0.0304.
On to RRIRVRPPRLPRPRPRPWKRPRP, for which the “shrunken log2 fold change” value is -0.1.
As to RRIRSRPPRLPRPRPRPKMFPRP, the “shrunken log2 fold change” value is -0.00685.
Under RRIRNRPPRLPRPRPRPDVGPRP stands -0.251; under RRIRLRPPRLPRPRPRPMLAPRP, 0.369.
With RRIRDRPPRLPRPRPRPGFRPRP the figure was 0.248; with RRIRHRPPRLPRPRPRPTPEPRP, -0.0453; with RRIRNRPPRLPRPRPRPKYIPRP, -0.667.
Under RRIRRRPPRLPRPRPRPLLVPRP stands 0.329.
Turning to RRIRTRPPRLPRPRPRPTDVPRP, the “shrunken log2 fold change” value is 0.284.
With RRIRGRPPRLPRPRPRPQWQPRP the figure was -0.134.
Under RRIRRRPPRLPRPRPRPWERPRP stands -0.0262; under RRIRFRPPRLPRPRPRPANMPRP, 0.321; under RRIRYRPPRLPRPRPRPTFCPRP, 0.115.
Under RRIRLRPPRLPRPRPRPFTQPRP stands -0.337; under RRIRMRPPRLPRPRPRPGSTPRP, 0.292; under RRIRKRPPRLPRPRPRPIWLPRP, 0.00836.
Regarding RRIRQRPPRLPRPRPRPCIKPRP, the “shrunken log2 fold change” value was found to be 0.155.
Under RRIRWRPPRLPRPRPRPGNIPRP stands -0.472.
For the sequence RRIRTRPPRLPRPRPRPDIIPRP, the “shrunken log2 fold change” value was -0.232.
Under RRIRSRPPRLPRPRPRPWFGPRP stands -0.124.
On to RRIRMRPPRLPRPRPRPMYMPRP, for which the “shrunken log2 fold change” value turned out to be 0.0751.
With RRIRGRPPRLPRPRPRPPVLPRP, the “shrunken log2 fold change” value stood at 0.25.
Under RRIRHRPPRLPRPRPRPEDWPRP stands 0.83; under RRIRTRPPRLPRPRPRPCIYPRP, -0.264.
With RRIRIRPPRLPRPRPRPTLKPRP the figure was -0.132; with RRIRRRPPRLPRPRPRPHIAPRP, -0.0643; with RRIRFRPPRLPRPRPRPLQQPRP, -0.0115.
Turning to RRIRYRPPRLPRPRPRPWIFPRP, the “shrunken log2 fold change” value was -0.505.
Regarding RRIRTRPPRLPRPRPRPLITPRP, the “shrunken log2 fold change” value is -0.489.
With RRIRDRPPRLPRPRPRPGRIPRP the figure was -0.136; with RRIRVRPPRLPRPRPRPEHWPRP, 0.28; with RRIRVRPPRLPRPRPRPMRGPRP, 0.444.
With RRIRERPPRLPRPRPRPPVDPRP the figure was 0.125; with RRIRFRPPRLPRPRPRPCKAPRP, -0.0248; with RRIRARPPRLPRPRPRPLPWPRP, 0.51.
With RRIRFRPPRLPRPRPRPFSTPRP the figure was -0.0736; with RRIRVRPPRLPRPRPRPVWMPRP, 0.52; with RRIRHRPPRLPRPRPRPTTHPRP, 0.0467.
As for RRIRQRPPRLPRPRPRPMVGPRP, the “shrunken log2 fold change” value is -0.00963.
In the case of RRIRPRPPRLPRPRPRPTEIPRP, the “shrunken log2 fold change” value was 0.000528.
For the sequence RRIRYRPPRLPRPRPRPRPKPRP, the “shrunken log2 fold change” value was found to be 0.374.
With RRIRNRPPRLPRPRPRPFVIPRP the figure was -0.528; with RRIRYRPPRLPRPRPRPTGNPRP, -0.858; with RRIRLRPPRLPRPRPRPDIYPRP, -0.458.
RRIRRRPPRLPRPRPRPLIIPRP: the “shrunken log2 fold change” value is -0.376.
In the case of RRIRLRPPRLPRPRPRPIKRPRP, the “shrunken log2 fold change” value is -0.466.
With RRIRFRPPRLPRPRPRPYSQPRP the figure was -0.411; with RRIRPRPPRLPRPRPRPVGSPRP, 0.261; with RRIRNRPPRLPRPRPRPFMLPRP, -1.17.
With RRIRCRPPRLPRPRPRPYRYPRP the figure was -0.262; with RRIRPRPPRLPRPRPRPANVPRP, -0.122.
Under RRIRSRPPRLPRPRPRPFNYPRP stands 0.0477.
RRIRWRPPRLPRPRPRPVWTPRP: the “shrunken log2 fold change” value turned out to be 0.162.
With RRIRSRPPRLPRPRPRPGKAPRP the figure was 0.188; with RRIRYRPPRLPRPRPRPRTPPRP, -0.149; with RRIRKRPPRLPRPRPRPIFTPRP, 0.118.
Consider RRIRYRPPRLPRPRPRPKGPPRP, for which the “shrunken log2 fold change” value is -0.0132.
In the case of RRIRIRPPRLPRPRPRPCEHPRP, the “shrunken log2 fold change” value is -0.00165.
With RRIRSRPPRLPRPRPRPHKVPRP the figure was -0.259; with RRIRLRPPRLPRPRPRPDIWPRP, -0.137.
With RRIRDRPPRLPRPRPRPEWKPRP the figure was -0.0135.
Take RRIRLRPPRLPRPRPRPYQAPRP: the “shrunken log2 fold change” value came out at 0.0204.
With RRIRCRPPRLPRPRPRPFNWPRP the figure was -0.648; with RRIRFRPPRLPRPRPRPCPVPRP, -0.618.
Consider RRIRQRPPRLPRPRPRPECRPRP, for which the “shrunken log2 fold change” value came to 0.414.
For RRIRWRPPRLPRPRPRPNIKPRP, the “shrunken log2 fold change” value was -0.384.
For RRIRMRPPRLPRPRPRPIITPRP, the “shrunken log2 fold change” value is -0.512.
Take RRIRGRPPRLPRPRPRPCSMPRP: the “shrunken log2 fold change” value was -0.0323.
In the case of RRIRGRPPRLPRPRPRPPFMPRP, the “shrunken log2 fold change” value came to 0.557.
With RRIRARPPRLPRPRPRPIGVPRP the figure was 0.892; with RRIRSRPPRLPRPRPRPHQAPRP, -0.161; with RRIRQRPPRLPRPRPRPQCHPRP, -0.0344.
On to RRIRMRPPRLPRPRPRPRNEPRP, for which the “shrunken log2 fold change” value was found to be 0.471.
With RRIRRRPPRLPRPRPRPENAPRP the figure was 0.115; with RRIRLRPPRLPRPRPRPGHRPRP, -0.114; with RRIRKRPPRLPRPRPRPEEVPRP, 2.83.
RRIRPRPPRLPRPRPRPMIWPRP: the “shrunken log2 fold change” value was -0.136.
With RRIRRRPPRLPRPRPRPVPNPRP the figure was 0.353; with RRIRKRPPRLPRPRPRPLQQPRP, 0.26.
In the case of RRIRVRPPRLPRPRPRPGSQPRP, the “shrunken log2 fold change” value was -0.11.
As to RRIRARPPRLPRPRPRPPWNPRP, the “shrunken log2 fold change” value turned out to be 0.427.
RRIRDRPPRLPRPRPRPQHGPRP: the “shrunken log2 fold change” value stood at 0.587.
As for RRIRGRPPRLPRPRPRPIDFPRP, the “shrunken log2 fold change” value was -0.0475.
Under RRIRQRPPRLPRPRPRPNMNPRP stands -0.528.
Turning to RRIRFRPPRLPRPRPRPRDSPRP, the “shrunken log2 fold change” value was -0.051.
Under RRIRWRPPRLPRPRPRPWIYPRP stands 0.0862.
With RRIRSRPPRLPRPRPRPEEFPRP the figure was -0.00122; with RRIRYRPPRLPRPRPRPWLAPRP, 0.00503; with RRIRLRPPRLPRPRPRPTSPPRP, -0.0576.
Under RRIRSRPPRLPRPRPRPDHPPRP stands -0.0828.
Take RRIRTRPPRLPRPRPRPRGDPRP: the “shrunken log2 fold change” value was found to be 0.409.
Under RRIRYRPPRLPRPRPRPGIQPRP stands -0.0445; under RRIRPRPPRLPRPRPRPLKSPRP, -0.157.
Under RRIRSRPPRLPRPRPRPQWGPRP stands -0.0633; under RRIRDRPPRLPRPRPRPQSRPRP, -0.123.
With RRIRHRPPRLPRPRPRPLYMPRP the figure was -0.00599; with RRIRHRPPRLPRPRPRPQVNPRP, -0.273.
For RRIRPRPPRLPRPRPRPHFCPRP, the “shrunken log2 fold change” value was -0.353.
Under RRIRERPPRLPRPRPRPSDRPRP stands -0.165; under RRIRSRPPRLPRPRPRPQRSPRP, 0.316.
Regarding RRIRMRPPRLPRPRPRPPDRPRP, the “shrunken log2 fold change” value stood at 1.26.
Take RRIRYRPPRLPRPRPRPKHWPRP: the “shrunken log2 fold change” value was 0.266.
With RRIRRRPPRLPRPRPRPYMIPRP the figure was -0.263.
On to RRIRDRPPRLPRPRPRPLTYPRP, for which the “shrunken log2 fold change” value is -0.339.
Turning to RRIRERPPRLPRPRPRPYMQPRP, the “shrunken log2 fold change” value is -0.326.
Consider RRIRTRPPRLPRPRPRPGMFPRP, for which the “shrunken log2 fold change” value is -0.397.
As to RRIRRRPPRLPRPRPRPLRFPRP, the “shrunken log2 fold change” value worked out at 0.836.
Under RRIRWRPPRLPRPRPRPFGPPRP stands 0.0591.
Regarding RRIRKRPPRLPRPRPRPHFGPRP, the “shrunken log2 fold change” value is -0.067.
